Holding throughout (experiment): two-hybrid library CCNG1;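 also: natural log of median RNA to DNA barcode read ratio; higher means stronger binding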
One test has as its target T1, 4H2473-bN.
T1 chain: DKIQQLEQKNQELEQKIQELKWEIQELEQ

The target in the next test is T2, 4H2503-bN.
T2 chain: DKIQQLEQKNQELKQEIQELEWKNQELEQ

A further test concerns the target T3, 4H2588-bN.
T3 chain: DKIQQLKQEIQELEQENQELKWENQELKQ

Another test concerns the target T4, 4H2673-bH.
T4 chain: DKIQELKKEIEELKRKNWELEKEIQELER

The target in a further test is T5, 4H2692-bN.
T5 chain: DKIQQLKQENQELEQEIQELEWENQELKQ

Another test deals with T6, 4H2717-bN.
T6 chain: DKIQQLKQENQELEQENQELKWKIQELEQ

The target of another test is T7, 4H2839-bN.
T7 chain: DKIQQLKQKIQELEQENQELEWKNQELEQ

Another test deals with T8, 4H2915-bN.
T8 chain: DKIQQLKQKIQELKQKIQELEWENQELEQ

The target of the next test is T9, 4H3057-bN.
T9 chain: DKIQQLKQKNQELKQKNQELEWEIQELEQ

The next test addresses T10, 4H319-bN.
T10 chain: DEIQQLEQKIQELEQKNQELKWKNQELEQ

The target in another test is T11, 4H3277-bN.
T11 chain: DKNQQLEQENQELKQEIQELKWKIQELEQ

The next test deals with T12, 4H348-bN.
T12 chain: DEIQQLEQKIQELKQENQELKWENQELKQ

For a further test, the target named is T13, 4H40-bN.
T13 chain: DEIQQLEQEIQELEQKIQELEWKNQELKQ

The next test deals with T14, 4H477-bN.
T14 chain: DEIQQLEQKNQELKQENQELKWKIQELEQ

In the next test the target is T15, 4H492-bN.
T15 chain: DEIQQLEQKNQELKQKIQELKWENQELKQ

The target in a further test is T16, 4H741-bN.
T16 chain: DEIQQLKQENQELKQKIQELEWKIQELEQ

In another test the target is T17, 4H2618-bA.
T17 chain: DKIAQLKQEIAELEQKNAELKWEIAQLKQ

A further test concerns the target T18, 4H2667-bA.
T18 chain: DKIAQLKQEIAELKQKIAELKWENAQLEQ

For the next test, the target named is T19, 4H2729-bA.
T19 chain: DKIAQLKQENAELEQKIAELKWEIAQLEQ

The next test addresses T20, 4H3112-bA.
T20 chain: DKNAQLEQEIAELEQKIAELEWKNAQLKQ

The target of the next test is T21, 4H3185-bA.
T21 chain: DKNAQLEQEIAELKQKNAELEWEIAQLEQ

For the next test, the target named is T22, 4H3189-bA.
T22 chain: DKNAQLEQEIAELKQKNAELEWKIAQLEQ

For the next test, the target named is T23, 4H331-bA.
T23 chain: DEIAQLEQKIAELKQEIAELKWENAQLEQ

The next test has as its target T24, 4H3354-bA.
T24 chain: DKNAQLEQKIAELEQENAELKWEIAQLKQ

The target of another test is T25, 4H338-bA.
T25 chain: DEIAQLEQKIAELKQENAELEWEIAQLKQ

The next test concerns the target T26, 4H3427-bA.
T26 chain: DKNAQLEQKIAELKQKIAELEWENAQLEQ

Another test addresses T27, 4H3782-bA.
T27 chain: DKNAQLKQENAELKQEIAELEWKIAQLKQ

The target of a further test is T28, 4H3855-bA.
T28 chain: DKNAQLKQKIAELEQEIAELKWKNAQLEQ

The next test has as its target T29, 4H4001-bA.
T29 chain: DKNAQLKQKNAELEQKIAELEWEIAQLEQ

In another test the target is T30, 4H454-bA.
T30 chain: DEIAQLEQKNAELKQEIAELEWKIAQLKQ

In the next test the target is T31, 4H568-bA.
T31 chain: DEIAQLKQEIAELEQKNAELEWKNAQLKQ

A further test deals with T32, 4H607-bA.
T32 chain: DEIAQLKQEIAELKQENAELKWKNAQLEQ

The target of a further test is T33, 4H687-bA.
T33 chain: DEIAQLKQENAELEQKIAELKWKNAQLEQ

The target in the next test is T34, 4H717-bA.
T34 chain: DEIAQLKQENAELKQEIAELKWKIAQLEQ

The target in the next test is T35, 4H72-bA.
T35 chain: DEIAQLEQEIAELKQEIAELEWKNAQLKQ

A further test addresses T36, 4H754-bA.
T36 chain: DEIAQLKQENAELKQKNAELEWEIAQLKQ

The next test has as its target T37, 4H797-bA.
T37 chain: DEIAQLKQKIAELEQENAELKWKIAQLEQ

The target of a further test is T38, 4H883-bA.
T38 chain: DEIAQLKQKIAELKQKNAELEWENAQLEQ

The target of the next test is T39, 4H908-bA.
T39 chain: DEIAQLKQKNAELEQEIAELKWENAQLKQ

Another test addresses T40, 4H918-bA.
T40 chain: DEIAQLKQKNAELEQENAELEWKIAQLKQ

For another test, the target named is T41, 4H953-bA.
T41 chain: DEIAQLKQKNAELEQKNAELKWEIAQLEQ

In a further test the target is T42, 4H967-bA.
T42 chain: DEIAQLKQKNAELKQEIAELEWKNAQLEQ

The target of a further test is T43, 4H2576-bA.
T43 chain: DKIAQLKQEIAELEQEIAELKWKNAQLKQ

A further test has as its target T44, 4H2610-bA.
T44 chain: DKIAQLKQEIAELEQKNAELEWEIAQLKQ

The target of the next test is T45, 4H2697-bA.
T45 chain: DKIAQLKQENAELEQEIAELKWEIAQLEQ

The target of the next test is T46, 4H2717-bA.
T46 chain: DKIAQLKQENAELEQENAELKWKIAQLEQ

Another test concerns the target T47, 4H2760-bN.
T47 chain: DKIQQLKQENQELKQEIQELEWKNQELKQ

In another test the target is T48, 4H3057-bA.
T48 chain: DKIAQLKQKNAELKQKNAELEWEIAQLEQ

For the next test, the target named is T49, 4H3606-bA.
T49 chain: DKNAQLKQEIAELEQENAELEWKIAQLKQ

The target of another test is T50, 4H370-bA.
T50 chain: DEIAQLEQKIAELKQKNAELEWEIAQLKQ

Another test deals with T51, 4H3843-bA.
T51 chain: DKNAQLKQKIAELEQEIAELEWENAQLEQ

In a further test the target is T52, 4H462-bA.
T52 chain: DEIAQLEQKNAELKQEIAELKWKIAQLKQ

The target of a further test is T53, P4A-bA.
T53 chain: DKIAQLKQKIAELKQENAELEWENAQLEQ

The next test deals with T54, P5A-bA.
T54 chain: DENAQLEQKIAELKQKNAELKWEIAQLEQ

The target of another test is T55, P6A-bA.
T55 chain: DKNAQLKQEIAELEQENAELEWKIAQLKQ

The next test addresses T56, P7A-bA.
T56 chain: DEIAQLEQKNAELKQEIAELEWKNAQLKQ

The next test concerns the target T57, P8A-bA.
T57 chain: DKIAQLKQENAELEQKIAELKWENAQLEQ

For the next test, the target named is T58, P9A-bA.
T58 chain: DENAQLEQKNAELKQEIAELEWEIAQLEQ

From article PMC10397247 come the findings set out here.

For DKIQQLEQKNQELEQKIQELKWEIQELEQ [4H2473-bN], the interaction score with 4H2473-bN is 0.273; with 4H2503-bN it was -1.11; with 4H2588-bN, -1.58; with 4H2673-bH, 0.46; with 4H2692-bN, -0.666; with 4H2717-bN, -2.13. Besides, the interaction score in the test with 4H2839-bN was -1.21; with 4H2915-bN, 0.258; with 4H3057-bN it was -0.442; with 4H319-bN, -0.961; with 4H3277-bN it was -1.47; in the test with 4H348-bN it was -0.231. In addition, the interaction score with 4H40-bN is -0.598; with 4H477-bN, -0.81; with 4H492-bN it was -0.992; with 4H741-bN it was -1.72.

In the case of DKIAQLKQEIAELEQKNAELKWEIAQLKQ [4H2618-bA], the interaction score with 4H2618-bA was 0.484; with 4H2667-bA, 0.0194; in the test with 4H2729-bA, 1.35; with 4H3112-bA, -0.804; with 4H3185-bA, 0.858; with 4H3189-bA, -2.6. For the same molecule, the interaction score is 0.866 in the test with 4H331-bA; 1.21 with 4H3354-bA; 1.02 with 4H338-bA; 0.72 with 4H3427-bA; -0.735 in the test with 4H3782-bA; -0.835 in the test with 4H3855-bA. In addition, the interaction score with 4H4001-bA was 0.142; with 4H454-bA, 0.854; with 4H568-bA it was -0.965; with 4H607-bA, -1.07; in the test with 4H687-bA, 0.769; with 4H717-bA, -1.08. Further, the interaction score with 4H72-bA is 0.102; with 4H754-bA it was -0.396; with 4H797-bA, 0.0328; with 4H883-bA it was 0.137; in the test with 4H908-bA, -0.916; with 4H918-bA, 1.61. Besides, the values for the interaction score in the test with 4H953-bA and in the test with 4H967-bA were -1.3 and -0.631, respectively.

Regarding DKIAQLKQEIAELEQEIAELKWKNAQLKQ [4H2576-bA], the interaction score with 4H2576-bA is 1.66; in the test with 4H2610-bA, -0.116; with 4H2618-bA, -0.0165; in the test with 4H2667-bA, 0.89; in the test with 4H2697-bA it was 0.599; in the test with 4H2717-bA, -1.39. Besides, the interaction score is 1.22 with 4H2729-bA; 0.547 with 4H2760-bN; 1.74 with 4H3057-bA; 0.265 with 4H3112-bA; -1.6 in the test with 4H3185-bA; -0.652 with 4H3189-bA. Besides, the interaction score was 1.26 with 4H331-bA; -0.69 with 4H3354-bA; 0.28 with 4H338-bA; 1.64 with 4H3427-bA; -0.614 with 4H3606-bA; 1.32 with 4H370-bA. The interaction score was 0.345 with 4H3782-bA; 2.1 with 4H3843-bA; 0.525 with 4H3855-bA; 1.77 with 4H4001-bA; 0.611 with 4H454-bA; 0.799 with 4H462-bA. Moreover, the interaction score with 4H568-bA was -0.232; in the test with 4H607-bA, -0.213; with 4H687-bA, -0.678; with 4H717-bA it was -1.01; in the test with 4H72-bA it was 1.49; with 4H754-bA, -0.459. Further, the interaction score in the test with 4H797-bA was -0.381; with 4H883-bA, 0.662; in the test with 4H908-bA it was 0.163; with 4H918-bA, -0.646; with 4H953-bA it was 0.283; with 4H967-bA, 1.25.

Take DKIAQLKQKIAELKQENAELEWENAQLEQ [P4A-bA]: the interaction score was -0.883 in the test with P4A-bA; -1.23 in the test with P5A-bA; -2.07 with P6A-bA; -1.25 with P7A-bA; -0.955 with P8A-bA; -0.899 in the test with P9A-bA.
